Key:
[1] = biological target: T1, Uncharacterized protein (Fragment) (Homo sapiens); experiment: anti-FLAG co-IP LC-MS, exp 4, +Dox +IFNG
T1 construct: also called NA (Homology to TAP2)

[2] = biological target: T2, Cyclin-dependent kinase 4 (Homo sapiens, UniProt P11802 2-303); experiment: anti-FLAG co-IP LC-MS, exp 4, +Dox +IFNG
T2 construct: also called CDK4

[3] = biological target: T3, cDNA FLJ56329, highly similar to Myosin light polypeptide 6 (Homo sapiens); experiment: anti-FLAG co-IP LC-MS, exp 4, +Dox +IFNG
T3 construct: also called MYL6

[4] = biological target: T4, Immunoglobulin kappa variable 2-40 (Homo sapiens); experiment: anti-FLAG co-IP LC-MS, exp 4, +Dox +IFNG
T4 construct: also called IGKV2-40

[5] = biological target: T5, Signal transducer and activator of transcription 1-alpha/beta (Homo sapiens, UniProt P42224 2-750); experiment: anti-FLAG co-IP LC-MS, exp 4, +Dox +IFNG
T5 construct: also called STAT1
T5 sequence (looked up): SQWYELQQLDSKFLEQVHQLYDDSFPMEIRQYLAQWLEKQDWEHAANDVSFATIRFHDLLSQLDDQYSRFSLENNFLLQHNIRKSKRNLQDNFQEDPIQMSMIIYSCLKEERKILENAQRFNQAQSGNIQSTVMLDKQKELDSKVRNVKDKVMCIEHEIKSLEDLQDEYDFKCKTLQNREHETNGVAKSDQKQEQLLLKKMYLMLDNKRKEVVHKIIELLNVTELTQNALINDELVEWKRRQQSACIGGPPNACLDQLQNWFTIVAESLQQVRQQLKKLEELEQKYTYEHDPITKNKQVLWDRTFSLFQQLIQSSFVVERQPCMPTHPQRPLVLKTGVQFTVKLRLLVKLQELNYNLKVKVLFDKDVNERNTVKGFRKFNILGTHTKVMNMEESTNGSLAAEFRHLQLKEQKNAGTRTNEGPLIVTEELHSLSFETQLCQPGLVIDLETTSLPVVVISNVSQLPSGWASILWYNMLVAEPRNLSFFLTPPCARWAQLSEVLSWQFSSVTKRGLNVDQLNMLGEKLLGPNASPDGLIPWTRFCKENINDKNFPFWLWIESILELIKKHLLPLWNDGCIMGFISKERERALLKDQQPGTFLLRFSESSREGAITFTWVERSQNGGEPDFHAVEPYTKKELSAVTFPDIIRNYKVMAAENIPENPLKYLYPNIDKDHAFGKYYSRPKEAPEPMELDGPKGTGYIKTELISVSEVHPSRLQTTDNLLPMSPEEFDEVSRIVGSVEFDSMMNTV

[6] = biological target: T6, Polyadenylate-binding protein 1 (Homo sapiens, UniProt P11940 1-636); experiment: anti-FLAG co-IP LC-MS, exp 4, +Dox +IFNG
T6 construct: also called PABPC1

[7] = biological target: T7, Proteasome subunit alpha type (Homo sapiens); experiment: anti-FLAG co-IP LC-MS, exp 3, +IFNg +Dox
T7 construct: also called PSMA6

[8] = biological target: T8, Heterogeneous nuclear ribonucleoprotein U (Homo sapiens, UniProt Q00839 2-825); experiment: anti-FLAG co-IP LC-MS, exp 3, +IFNg +Dox
T8 construct: also called HNRNPU; HNRPU

[9] = biological target: T9, Heterogeneous nuclear ribonucleoprotein M (Homo sapiens, UniProt P52272 2-730); experiment: anti-FLAG co-IP LC-MS, exp 3, +IFNg +Dox
T9 construct: also called HNRNPM
T9 sequence (looked up): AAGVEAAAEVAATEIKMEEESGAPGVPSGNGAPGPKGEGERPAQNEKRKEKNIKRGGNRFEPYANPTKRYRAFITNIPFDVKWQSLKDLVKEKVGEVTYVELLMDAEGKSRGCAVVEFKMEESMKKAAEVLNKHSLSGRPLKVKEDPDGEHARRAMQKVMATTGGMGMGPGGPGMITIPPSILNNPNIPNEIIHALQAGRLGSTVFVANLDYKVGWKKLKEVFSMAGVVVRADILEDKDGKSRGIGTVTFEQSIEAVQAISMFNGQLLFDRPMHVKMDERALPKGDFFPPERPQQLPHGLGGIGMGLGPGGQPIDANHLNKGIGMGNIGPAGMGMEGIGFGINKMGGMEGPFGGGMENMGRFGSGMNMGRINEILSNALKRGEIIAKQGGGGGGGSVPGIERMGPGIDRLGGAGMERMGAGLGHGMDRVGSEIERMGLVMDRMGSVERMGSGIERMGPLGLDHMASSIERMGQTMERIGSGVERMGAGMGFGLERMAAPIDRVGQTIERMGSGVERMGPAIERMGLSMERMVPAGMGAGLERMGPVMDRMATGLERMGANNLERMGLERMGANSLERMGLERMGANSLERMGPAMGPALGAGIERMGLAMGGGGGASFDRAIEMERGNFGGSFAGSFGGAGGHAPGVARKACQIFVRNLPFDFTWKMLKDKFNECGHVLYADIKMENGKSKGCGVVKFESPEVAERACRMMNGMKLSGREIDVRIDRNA

[10] = biological target: T1, Uncharacterized protein (Fragment); experiment: anti-FLAG co-IP LC-MS, exp 3, +IFNg +Dox
Nucleolin = biological target: T10, Nucleolin (Homo sapiens, UniProt P19338 2-710); experiment: anti-FLAG co-IP LC-MS, exp 3, +IFNg +Dox
T10 construct: also called NCL

[11] = biological target: T11, DNA-dependent protein kinase catalytic subunit (Homo sapiens, UniProt P78527 1-4128); experiment: anti-FLAG co-IP LC-MS, exp 3, +IFNg +Dox
T11 construct: also called PRKDC

[12] = biological target: T3, cDNA FLJ56329, highly similar to Myosin …; experiment: anti-FLAG co-IP LC-MS, exp 3, +IFNg +Dox
[13] = biological target: T12, Nuclease-sensitive element-binding protein 1 (Fragment) (Homo sapiens, UniProt P67809 2-324); experiment: anti-FLAG co-IP LC-MS, exp 3, +IFNg +Dox
T12 construct: also called YBX1

[14] = biological target: T4, Immunoglobulin kappa variable 2-40; experiment: anti-FLAG co-IP LC-MS, exp 3, +IFNg +Dox
[15] = biological target: T5, Signal transducer and activator of …; experiment: anti-FLAG co-IP LC-MS, exp 3, +IFNg +Dox
[16] = biological target: ATP-dependent RNA helicase DDX3X (Homo sapiens, UniProt O00571 2-662); experiment: anti-FLAG co-IP LC-MS, exp 3, +IFNg +Dox
ATP-dependent RNA helicase DDX3X, sequence (O00571 2-662 limits assumed): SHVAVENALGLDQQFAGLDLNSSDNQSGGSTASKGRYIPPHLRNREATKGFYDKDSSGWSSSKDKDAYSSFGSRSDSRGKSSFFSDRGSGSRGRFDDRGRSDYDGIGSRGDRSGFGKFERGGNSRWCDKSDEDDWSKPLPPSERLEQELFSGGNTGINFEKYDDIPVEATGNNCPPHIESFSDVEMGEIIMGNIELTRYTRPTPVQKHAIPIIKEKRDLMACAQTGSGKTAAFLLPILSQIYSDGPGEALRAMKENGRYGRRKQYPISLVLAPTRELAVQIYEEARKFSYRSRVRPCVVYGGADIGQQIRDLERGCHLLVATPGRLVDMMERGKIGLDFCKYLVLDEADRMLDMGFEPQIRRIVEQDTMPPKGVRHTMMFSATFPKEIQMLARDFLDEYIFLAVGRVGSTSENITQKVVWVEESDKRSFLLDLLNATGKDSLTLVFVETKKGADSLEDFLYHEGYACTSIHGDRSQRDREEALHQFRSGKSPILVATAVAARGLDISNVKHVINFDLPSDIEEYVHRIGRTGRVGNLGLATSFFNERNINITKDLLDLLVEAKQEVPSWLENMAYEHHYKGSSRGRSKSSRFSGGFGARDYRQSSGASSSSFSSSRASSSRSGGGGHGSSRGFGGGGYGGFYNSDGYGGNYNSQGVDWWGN

T4 sequence (A0A087WW87 20-121): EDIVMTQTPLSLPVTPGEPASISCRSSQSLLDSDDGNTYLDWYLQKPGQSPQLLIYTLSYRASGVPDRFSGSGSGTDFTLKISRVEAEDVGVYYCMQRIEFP
T6 sequence (P11940 whole entry): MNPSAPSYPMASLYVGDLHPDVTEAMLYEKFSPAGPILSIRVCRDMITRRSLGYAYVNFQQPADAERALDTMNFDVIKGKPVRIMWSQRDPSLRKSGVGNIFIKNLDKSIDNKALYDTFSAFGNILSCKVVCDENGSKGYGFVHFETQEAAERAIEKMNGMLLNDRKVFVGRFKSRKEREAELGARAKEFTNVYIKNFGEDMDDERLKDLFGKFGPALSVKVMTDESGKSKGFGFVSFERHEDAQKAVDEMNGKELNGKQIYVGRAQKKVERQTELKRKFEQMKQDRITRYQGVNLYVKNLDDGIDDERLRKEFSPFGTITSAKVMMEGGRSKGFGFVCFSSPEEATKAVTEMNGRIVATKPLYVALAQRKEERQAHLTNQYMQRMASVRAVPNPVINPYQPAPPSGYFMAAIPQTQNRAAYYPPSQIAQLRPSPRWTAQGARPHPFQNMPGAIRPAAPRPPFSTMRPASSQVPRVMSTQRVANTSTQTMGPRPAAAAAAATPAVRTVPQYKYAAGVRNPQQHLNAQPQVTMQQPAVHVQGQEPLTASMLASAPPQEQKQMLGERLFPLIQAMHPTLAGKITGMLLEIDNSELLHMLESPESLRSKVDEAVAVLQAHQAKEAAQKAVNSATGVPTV
T12 sequence (P67809 2-324 limits assumed): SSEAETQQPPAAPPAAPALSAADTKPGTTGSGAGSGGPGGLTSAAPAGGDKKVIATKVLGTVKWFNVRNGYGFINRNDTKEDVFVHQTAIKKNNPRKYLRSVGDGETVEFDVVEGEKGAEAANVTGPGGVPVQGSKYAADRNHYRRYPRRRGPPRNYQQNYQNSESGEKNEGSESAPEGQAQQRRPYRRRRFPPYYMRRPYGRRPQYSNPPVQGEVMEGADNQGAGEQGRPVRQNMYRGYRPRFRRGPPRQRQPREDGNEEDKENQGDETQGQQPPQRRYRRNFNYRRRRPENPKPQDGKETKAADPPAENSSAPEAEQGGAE
T2 sequence (P11802 2-303 limits assumed): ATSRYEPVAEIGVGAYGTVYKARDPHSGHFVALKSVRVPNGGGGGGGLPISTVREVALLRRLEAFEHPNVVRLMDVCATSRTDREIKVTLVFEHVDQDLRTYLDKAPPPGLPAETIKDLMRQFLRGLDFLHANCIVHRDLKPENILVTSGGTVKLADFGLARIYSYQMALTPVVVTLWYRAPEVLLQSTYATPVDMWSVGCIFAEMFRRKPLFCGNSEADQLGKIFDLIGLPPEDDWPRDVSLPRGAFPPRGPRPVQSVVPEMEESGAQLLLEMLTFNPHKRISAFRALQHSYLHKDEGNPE
T10 sequence (P19338 2-710 limits assumed): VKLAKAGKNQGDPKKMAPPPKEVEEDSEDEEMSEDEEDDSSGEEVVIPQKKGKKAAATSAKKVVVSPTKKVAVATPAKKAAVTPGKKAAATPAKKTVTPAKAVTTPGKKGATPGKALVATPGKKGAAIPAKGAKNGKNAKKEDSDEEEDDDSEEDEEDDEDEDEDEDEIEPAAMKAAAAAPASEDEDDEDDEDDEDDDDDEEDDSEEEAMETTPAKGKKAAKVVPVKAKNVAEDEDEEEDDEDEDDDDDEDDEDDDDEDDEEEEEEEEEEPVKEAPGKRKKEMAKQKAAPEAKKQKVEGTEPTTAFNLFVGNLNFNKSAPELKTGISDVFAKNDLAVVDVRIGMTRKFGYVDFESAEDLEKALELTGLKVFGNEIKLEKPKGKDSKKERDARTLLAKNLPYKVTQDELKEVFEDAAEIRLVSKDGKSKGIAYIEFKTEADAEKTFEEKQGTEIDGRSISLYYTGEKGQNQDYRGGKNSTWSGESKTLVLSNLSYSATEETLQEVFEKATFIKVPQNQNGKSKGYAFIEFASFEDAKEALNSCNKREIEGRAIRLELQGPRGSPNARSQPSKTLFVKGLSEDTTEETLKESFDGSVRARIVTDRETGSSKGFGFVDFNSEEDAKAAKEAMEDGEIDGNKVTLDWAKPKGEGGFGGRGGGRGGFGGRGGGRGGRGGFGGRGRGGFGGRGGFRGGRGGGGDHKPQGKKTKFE
T8 sequence (Q00839 2-825 limits assumed): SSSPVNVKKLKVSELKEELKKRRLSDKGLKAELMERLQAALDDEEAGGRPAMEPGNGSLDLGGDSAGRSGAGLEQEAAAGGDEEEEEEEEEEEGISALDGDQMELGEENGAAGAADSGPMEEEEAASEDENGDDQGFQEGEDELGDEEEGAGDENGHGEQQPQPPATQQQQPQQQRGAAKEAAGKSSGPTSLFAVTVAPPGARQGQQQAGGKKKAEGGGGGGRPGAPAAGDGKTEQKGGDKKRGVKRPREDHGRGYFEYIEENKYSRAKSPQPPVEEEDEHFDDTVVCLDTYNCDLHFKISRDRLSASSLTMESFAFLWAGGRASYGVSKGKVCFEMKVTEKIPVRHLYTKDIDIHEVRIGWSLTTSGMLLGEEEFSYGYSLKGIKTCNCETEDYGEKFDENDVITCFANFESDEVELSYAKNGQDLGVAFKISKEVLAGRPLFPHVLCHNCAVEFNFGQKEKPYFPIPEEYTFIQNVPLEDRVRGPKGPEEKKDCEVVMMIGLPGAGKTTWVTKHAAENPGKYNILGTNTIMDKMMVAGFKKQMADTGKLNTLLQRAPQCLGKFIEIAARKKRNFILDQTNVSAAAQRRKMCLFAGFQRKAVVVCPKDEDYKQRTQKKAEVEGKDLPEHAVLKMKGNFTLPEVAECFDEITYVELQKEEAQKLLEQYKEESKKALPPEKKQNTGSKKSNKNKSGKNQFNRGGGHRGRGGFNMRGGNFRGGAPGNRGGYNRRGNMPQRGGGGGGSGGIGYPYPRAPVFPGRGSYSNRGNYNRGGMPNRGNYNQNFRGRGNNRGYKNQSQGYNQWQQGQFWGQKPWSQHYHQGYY

B1: i3XFLAG-NLS-CTDaa154-424 (other)
chain: MDYKDHDGDYKDHDIDYKDDDDKPPKRMRREPKKKRKVGRAPAQAGGLCSAAPGGGHPAPSWVAFAHTGAWGTGLPAPHVPCAPGALPQGAFVSQAARAAPALQPSQAAPAEGISQPAPARGDFAYAAPAPPDGALSHPQAPRWPPHPGKSREDRDPQRDGLPGPCAVAQPGPAQAGPQGQGVLAPPTSQGSPWWGWGRGPQVAGAAWEPQAGAAPPPQPAPPDASASARQGQMQGIPAPSQALQEPAPWSALPCGLLLDELLASPEFLQQAQPLLETEAPGELEASEEAASLEAPLSEEEYRALLEEL
notes: Doxycycline-induced in MB135 cells for co-IP; also called longCTD; iDUX4-CTD
B1 was tested, and the PSMs [1] was 1 PSMs, the PSMs [2] was 11 PSMs and the PSMs [3] was 5 PSMs. It also gave a PSMs [4] of 5 PSMs, a PSMs [5] of 19 PSMs and a PSMs [6] of 3 PSMs. The PSMs [7] was 1 PSMs, the PSMs [8] was 9 PSMs and the PSMs [9] was 21 PSMs. It also gave a PSMs [10] of 1 PSMs, a PSMs (Nucleolin) of 4 PSMs and a PSMs [11] of 18 PSMs. For the same binder, the PSMs [12] was 4 PSMs, the PSMs [13] was 7 PSMs and the PSMs [14] was 2 PSMs. The PSMs [15] was 3 PSMs and the PSMs [16] was 37 PSMs.
